Laboratory results published in US20170051048A1 (ALDERBIO, published 2017).

B1: Antibody Ab3 (antibody, human IgG1, kappa, N297A, V domains shown)
VH: QSVEESGGRLVTPGTPLTLTCTVSGFSLSSYVMIWVRQAPGKGLEYIGITWSAGTYYASWAKGRFTISKTSSTTVDLKITSPTTEDTATYFCAGGGGSIYDIWGPGTLVTVSS
VL: AVLTQTPSPVSAAMGDTVTIKCQSSQSVYKNNYLSWYQQKPGQPPRLLIYDASNLPSGVPSRFSGSGSGTQFTLTISGVQCDDAATYYCLGDYDDDADNAFGGGTEVVVKR
B2: Antibody fragment Fab1 (Fab, V domains shown)
VH: EVQLVESGGGLVQPGGSLRLSCAASGFTVSNYAVGWVRQAPGKGLEWVGIIGRNGNTWYASSARGRFTISRDNSKNTLYLQMNSLRAEDTAVYYCARGYGRSVAYYVFNIWGPGTLVTVSS
VL: DIQMTQSPSTLSASVGDRVTITCQASQSIYSNLAWYQQKPGKAPKLLIYDASTLESGVPSRFSGSGSGTEYTLTISSLQPDDFATYYCQQGFTVSDIDNAFGGGTKVEIKR
B3: Antibody fragment Fab2 (Fab, V domains shown)
VH: B2 VH
VL: B2 VL

Key:
[1] = molecular target: T1, Homo sapiens Beta-Nerve Growth Factor (beta-NGF) (Homo sapiens, UniProt P01138 122-241); experiment: Antigen binding ELISA: biotinylated NGF on neutravidin plates, anti-human Fc-HRP, OD 450 nm
T1 construct: Biotinylated and held on neutravidin plates in the ELISA; also called huNGF; B-NGF
T1 sequence (P01138 122-241): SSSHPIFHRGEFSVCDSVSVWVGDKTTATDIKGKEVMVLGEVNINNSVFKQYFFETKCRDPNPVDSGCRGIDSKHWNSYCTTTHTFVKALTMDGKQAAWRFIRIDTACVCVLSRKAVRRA
Procedure: (§1) To identify and characterize antibodies and Fab fragments that bind to human NGF, antibody- and Fab-containing solutions were tested by ELISA. Briefly, neutravidin coated plates (Thermo Scientific), were blocked with ELISA buffer (0.1 mg/mL BSA, 1×PBS pH 7.4, 0.002% Tween 20 and 0.005% sodium azide) for 1 hr at room temperature. The plates were then coated with a 1 µg/mL biotinylated B-NGF solution in ELISA buffer for 1 hour at room temperature. This was followed by a wash step (3× using PBS plus 0.05% Tween 20) and a second block with ELISA buffer. The recombinant antibodies or Fabs were then added onto the plates and incubated for 1 hour at room temperature and then washed 3× with PBS/Tween solution. For development, an anti-human Fc-HRP or an anti-human Fab-fragment HRP (1:5000 dilution in ELISA buffer) was added onto the wells and incubated for 45 min at RT. After a 3× wash step with PBS/Tween solution, the plate was developed using TMB substrate for 3 minutes, stopped using 0.5M HCl, and read at 450 nm.

[2] = molecular target: T1, Homo sapiens Beta-Nerve Growth Factor …; experiment: Antigen binding ELISA: biotinylated NGF on neutravidin plates, anti-human Fab-fragment HRP, OD 450 nm
Procedure: as §1

| Binder | EC50 [1] | EC50 (read off the curve) [1] | EC50 [2] | EC50 (read off the curve) [2] |
| --- | --- | --- | --- | --- |
| B1 | 0.257 nM | ~0.3 nM | – | – |
| B2 | – | – | 0.4 nM | ~0.04 nM |
| B3 | – | – | 0.8 nM | ~0.08 nM |
